Data from patent publication US20220332804A1 (CSL INNOVATION, published 2022).

What was measured:
Test in all cases: SPR, KD relative to WT C2;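 also: biacore SPR at 37 °C, anti-C2 mAbs captured via immobilised goat anti-human IgG, C2 alanine or serine surface mutants as analytes, 1:1 model fitted, double-referenced sensograms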
human C2 K485A = molecular target: T1, human C2 K485A (human, UniProt P06681 21-752)
T1 sequence: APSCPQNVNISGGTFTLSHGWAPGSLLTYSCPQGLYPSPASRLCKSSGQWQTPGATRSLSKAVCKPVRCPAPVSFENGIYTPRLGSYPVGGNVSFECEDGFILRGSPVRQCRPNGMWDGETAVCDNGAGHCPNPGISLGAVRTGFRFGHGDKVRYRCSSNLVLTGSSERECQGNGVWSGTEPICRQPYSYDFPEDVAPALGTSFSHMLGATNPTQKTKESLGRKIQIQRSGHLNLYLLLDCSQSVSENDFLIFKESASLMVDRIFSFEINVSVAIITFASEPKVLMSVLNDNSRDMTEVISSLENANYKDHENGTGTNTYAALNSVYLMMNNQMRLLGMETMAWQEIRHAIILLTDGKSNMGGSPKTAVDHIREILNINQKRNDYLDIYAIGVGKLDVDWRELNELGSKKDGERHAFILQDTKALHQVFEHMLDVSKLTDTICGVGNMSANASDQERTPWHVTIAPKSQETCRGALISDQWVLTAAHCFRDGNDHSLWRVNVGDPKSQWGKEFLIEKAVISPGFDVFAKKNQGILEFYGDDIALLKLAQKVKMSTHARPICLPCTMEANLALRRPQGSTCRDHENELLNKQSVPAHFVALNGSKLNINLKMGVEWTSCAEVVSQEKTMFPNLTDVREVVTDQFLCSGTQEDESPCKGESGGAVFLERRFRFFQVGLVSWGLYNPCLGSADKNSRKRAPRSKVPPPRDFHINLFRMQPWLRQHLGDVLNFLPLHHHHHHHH

human C2 A444S = molecular target: T2, human C2 A444S (human, UniProt P06681 21-752)
T2 sequence: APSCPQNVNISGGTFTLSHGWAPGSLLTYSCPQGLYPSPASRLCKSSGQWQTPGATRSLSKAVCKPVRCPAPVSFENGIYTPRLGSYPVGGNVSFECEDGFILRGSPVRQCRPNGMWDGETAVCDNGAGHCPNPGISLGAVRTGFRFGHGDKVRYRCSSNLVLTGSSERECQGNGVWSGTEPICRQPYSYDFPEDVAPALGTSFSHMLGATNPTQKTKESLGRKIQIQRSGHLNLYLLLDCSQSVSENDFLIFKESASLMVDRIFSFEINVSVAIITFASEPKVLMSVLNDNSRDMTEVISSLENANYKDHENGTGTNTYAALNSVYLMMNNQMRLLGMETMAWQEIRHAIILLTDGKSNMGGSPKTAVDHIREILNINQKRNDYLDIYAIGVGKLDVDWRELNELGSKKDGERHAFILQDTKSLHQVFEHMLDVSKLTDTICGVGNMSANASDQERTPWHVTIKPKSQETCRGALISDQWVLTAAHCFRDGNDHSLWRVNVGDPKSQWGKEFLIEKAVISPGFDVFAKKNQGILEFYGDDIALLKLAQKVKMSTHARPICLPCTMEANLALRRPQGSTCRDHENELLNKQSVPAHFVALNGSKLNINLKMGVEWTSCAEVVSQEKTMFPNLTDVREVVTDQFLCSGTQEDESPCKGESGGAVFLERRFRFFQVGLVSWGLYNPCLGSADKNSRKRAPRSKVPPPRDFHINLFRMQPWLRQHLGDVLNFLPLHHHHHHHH

human C2 F270A = molecular target: T3, human C2 F270A (human, UniProt P06681 21-752)
T3 sequence: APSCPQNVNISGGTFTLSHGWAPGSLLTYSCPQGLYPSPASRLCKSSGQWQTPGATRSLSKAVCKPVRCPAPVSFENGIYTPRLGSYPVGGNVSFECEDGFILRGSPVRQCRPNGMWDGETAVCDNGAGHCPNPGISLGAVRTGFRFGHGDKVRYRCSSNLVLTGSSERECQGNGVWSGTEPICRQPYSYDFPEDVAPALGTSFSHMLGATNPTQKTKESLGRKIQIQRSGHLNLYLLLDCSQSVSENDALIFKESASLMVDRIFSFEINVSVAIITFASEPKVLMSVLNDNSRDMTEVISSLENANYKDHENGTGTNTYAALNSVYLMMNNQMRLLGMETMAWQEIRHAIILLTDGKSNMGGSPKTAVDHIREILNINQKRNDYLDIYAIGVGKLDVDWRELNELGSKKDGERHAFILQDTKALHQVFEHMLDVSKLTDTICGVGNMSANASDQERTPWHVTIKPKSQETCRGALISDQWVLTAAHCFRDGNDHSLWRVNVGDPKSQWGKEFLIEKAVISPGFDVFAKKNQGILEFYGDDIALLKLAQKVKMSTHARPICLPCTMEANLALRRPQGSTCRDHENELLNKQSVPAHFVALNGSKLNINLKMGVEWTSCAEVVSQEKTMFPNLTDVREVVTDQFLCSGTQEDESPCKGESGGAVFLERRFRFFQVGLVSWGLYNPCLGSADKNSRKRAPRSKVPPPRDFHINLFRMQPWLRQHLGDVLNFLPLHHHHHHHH

human C2 L271A = molecular target: T4, human C2 L271A (human, UniProt P06681 21-752)
T4 sequence: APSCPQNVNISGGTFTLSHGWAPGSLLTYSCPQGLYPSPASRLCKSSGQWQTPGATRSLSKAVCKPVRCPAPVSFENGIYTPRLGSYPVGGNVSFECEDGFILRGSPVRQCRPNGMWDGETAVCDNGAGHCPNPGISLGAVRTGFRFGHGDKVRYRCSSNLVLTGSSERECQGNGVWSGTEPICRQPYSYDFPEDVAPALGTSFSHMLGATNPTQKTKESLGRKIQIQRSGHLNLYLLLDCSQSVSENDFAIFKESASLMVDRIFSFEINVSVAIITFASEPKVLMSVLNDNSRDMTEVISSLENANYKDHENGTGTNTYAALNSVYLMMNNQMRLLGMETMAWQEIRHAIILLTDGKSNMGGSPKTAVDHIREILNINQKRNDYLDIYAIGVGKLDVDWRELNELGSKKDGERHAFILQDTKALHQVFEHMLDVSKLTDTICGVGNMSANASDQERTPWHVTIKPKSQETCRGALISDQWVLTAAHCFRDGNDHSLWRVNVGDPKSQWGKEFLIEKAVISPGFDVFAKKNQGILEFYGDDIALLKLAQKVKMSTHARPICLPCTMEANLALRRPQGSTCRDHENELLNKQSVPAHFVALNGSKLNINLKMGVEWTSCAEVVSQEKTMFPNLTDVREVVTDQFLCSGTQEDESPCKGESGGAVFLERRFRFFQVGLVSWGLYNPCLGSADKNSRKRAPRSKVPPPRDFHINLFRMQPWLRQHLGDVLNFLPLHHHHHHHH

B1: RF16-226 (antibody, human IgG4 S228P, lambda)
heavy: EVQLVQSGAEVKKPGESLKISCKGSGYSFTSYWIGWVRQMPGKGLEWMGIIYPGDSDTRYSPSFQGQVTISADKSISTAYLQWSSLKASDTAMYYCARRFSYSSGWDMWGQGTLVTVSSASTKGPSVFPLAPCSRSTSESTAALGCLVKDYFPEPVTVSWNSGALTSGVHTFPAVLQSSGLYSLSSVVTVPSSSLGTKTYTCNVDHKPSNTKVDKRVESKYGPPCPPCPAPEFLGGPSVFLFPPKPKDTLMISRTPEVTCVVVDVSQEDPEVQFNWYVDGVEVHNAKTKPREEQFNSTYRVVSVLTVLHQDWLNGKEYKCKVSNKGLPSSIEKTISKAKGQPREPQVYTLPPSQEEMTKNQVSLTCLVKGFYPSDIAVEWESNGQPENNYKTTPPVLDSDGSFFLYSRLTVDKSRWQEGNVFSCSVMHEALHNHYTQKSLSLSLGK
light: SYELTQPPSVSVSPGQTARITCSGDALTSKYVAWYQQKSGLAPLLVIYEDTRRPSGIPAKFSGSSSGSVATLTISGAHGDDEADYYCYSTDASGHQRVFGGGTKLTVLSQPKAAPSVTLFPPSSEELQANKATLVCLISDFYPGAVTVAWKADGSPVKAGVETTKPSKQSNNKYAASSYLSLTPEQWKSHRSYSCQVTHEGSTVEKTVAPTECS
notes: pH-dependent anti-C2 antibody from a phage display library; also called WT
Question: What does the source list for B1?
Answer: Fold diff (human C2 K485A): 1 fold; Fold diff (human C2 A444S): 2 fold; Fold diff (human C2 F270A): 10 fold; Fold diff (human C2 L271A): 1 fold
